Several values for one entry are separate records, joined by “and”; a condition that tells them apart may be missing. Equal entries are not always repeated. No end group written: not given here.
Assays:
[1] = Powder SHG efficiency (Kurtz and Perry powder technique, sucrose standard); format: physicochemical; conditions: relative to sucrose; average ± standard deviation
From the text: (§1) We acquired SHG images using a commercial laser scanning microscopic imaging system (Zeiss LSM 510 META, Jena, Germany) coupled to a mode-locked femtosecond Ti: sapphire laser (Mai-Tai broadband, Spectra-Physics), tunable from 710 nm to 990 nm. To achieve spectral analysis and detect the SHG signal, we used the META detector with 32-gated photon counting module.
All these peptides are SHG-active. We used a powder technique developed by Kurtz and Perry to evaluate the SHG efficiency of these second-order nonlinear optical materials. Sucrose, having a relatively modest nonlinearity, was chosen as a standard to evaluate second harmonic generation efficiencies. […] The efficiency of LD6 and IK3 were even three times higher than that of sucrose. These may due to their molecular structures. LD6 is known to form hydrogel at much lower concentrations compared to LK6. The trimer IK3 has larger dipole moment compared to LK6. […] This agrees with the previous findings. In Table 1, all the tested amyloid-like peptides were SHG-active with some showing even higher SHG efficiency than collagen subtypes. This provides a broad spectrum of materials as second harmonic probes.

HeLa cells [2] = assay: MTS cytotoxicity test, HeLa cells; format: cell-based, human; conditions: 48 h, 0.1 to 1000 μg/mL
Description: (§2) In order to use LK6 for bioimaging applications, such as monitoring cells and in vivo imaging, we assessed the cytotoxicity of LK6 by the MTS test. The MTS test was applied to two human cell lines, HeLa and primary human dermal fibroblasts (HDF). The toxicity of LK6 was measured at 0.1, 1, 10, 100 and 1000 μg/mL. Cells were exposed to cell culture media containing LK6 solution for 48 h. […] Calcein AM can penetrate cell membrane and be converted to cell membrane impermeable green fluorescent calcein, while red fluorescent EthD-1 is excluded by the intact cell membrane of live cells.
(§3) We cultured both HeLa and human dermal fibroblasts in DMEM supplemented with 10% fetal bovine serum and 1% penicillin/streptomycin (Life technologies, Singapore).
(§4) In order to use LK6 for bioimaging applications, such as in vitro monitoring cells and in vivo imaging the whole animal, we assessed the cytotoxicity of LK6 by the MTS test and live/dead assay with two human cell lines, human epithelial carcinoma cells (HeLa) and primary human dermal fibroblasts (HDF).

[3] = tested on: primary human dermal fibroblasts (HDF); assay: MTS cytotoxicity test, human dermal fibroblasts; format: cell-based; conditions: 48 h, 0.1 to 1000 μg/mL
Description: as §2, §3, §4

HeLa cells [4] = assay: Calcein AM/EthD-1 live/dead staining, HeLa cells; format: cell-based, human; conditions: 48 h, 1 and 1000 μg/mL
Description: (§5) (b) Cytotoxicity determined by Calcein AM/EthD-1 (live/dead, green/red) staining method after 48 h treated with 1 and 1000 μg/mL LK6 peptide solutions using non-treated cells as control.
as §2, §4

[5] = tested on: primary human dermal fibroblasts (HDF); assay: Calcein AM/EthD-1 live/dead staining, HDF cells; format: cell-based; conditions: 48 h, 1 and 1000 μg/mL
Description: as §5, §2, §4

[6] = SHG imaging and spectral analysis of peptide particles; format: physicochemical
From the text: as §1
To test whether the amyloid-like peptides of the present invention are SHG-active, we first investigated a hexamer peptide, Ac-LIVAGK-NH2, (LK6) (SEQ ID NO: 27). Peptide particles deposited on a glass microscope slide were examined under an SHG imaging system. Instrument details can be found in our previous work. During the whole experiments, only the backscattered geometry was employed because it is the only suitable configuration for in vivo imaging. We chose collagen I as a control. For more than a decade it has been shown that SHG microscopy can visualize supramolecular assembly of collagen in tissues. […] The fine structures of collagen and peptide particles can be clearly seen under SHG and scanning electron microscopy (SEM, FIG. 1a insert, 1b and 1c).
We further characterized LK6 peptide. […] When excited at 810 nm, LK6 emitted a sharp SHG peak at 405 nm (FIG. 2a). We then examined the excitation wavelength tunability of SHG signals from LK6 peptide. In FIG. 2b, as the excitation wavelength was increased from 810 to 890 nm, the wavelength of the SHG signals from the LK6 peptide particles increased from 405 to 445 nm respectively. Biological samples, such as cells and tissues, are known to have auto-fluorescence. With excitation wavelength tunability, we can better avoid auto-fluorescence. In addition, we can further increase penetration depth in tissues by simply increasing excitation wavelength. […] The band width (full width at half-maximum of Gaussian distribution, FWHM) was narrow (˜10 nm) and it obeys a relationship to the corresponding wavelength profile of the fundamental beam (˜15 nm). Moreover, we measured the dependence of the output signal on irradiation intensity by varying the 850 nm excitation intensity. […] (1)

[7] = at 12 mM, ref [18]; cited from earlier work
[8] = Hyper Rayleigh Scattering, ref [19]; cited from earlier work

Substance | Powder SHG efficiency I^2ω/I^2ω(sucrose) [1] | Hydrogel formation [7] | other results
Ac-LIVAGK-NH2 [LK6, Ac-LIVAGK-NH2] | 0.95 ± 0.19 | self-assembled into hydrogels | Cell viability (MTS) (HeLa cells [2]): either equivalent to or even higher than that of untreated cells; Cell viability (MTS) [3]: either equivalent to or even higher than that of untreated cells; Cytotoxicity by live/dead staining (HeLa cells [4]): no toxicity; Cytotoxicity by live/dead staining [5]: no toxicity; SHG peak emission wavelength ([6]; excitation 810 nm): 405 nm; SHG band width (FWHM of Gaussian distribution) ([6]; excitation 850 nm): ~10 nm; SHG emission maximum (Gaussian fit) ([6]; excitation 850 nm): 425 nm; SHG signal wavelength ([6]; excitation 890 nm): 445 nm and 450 nm
DFNKF (listed as Homo sapiens) [DF5] | 0.89 ± 0.33 | self-assembled into hydrogels | 
GGG |  |  | First hyperpolarizability β [8]: about 0.087 ×10-30 esu
GGVVIA (listed as Homo sapiens) [GA6] | 1.52 ± 0.43 | self-assembled into hydrogels | 
ILVAGS (Ac-ILVAGS) [IS6, designed synthetic hexamer, neutral, acetylated at the N terminus] | 1.96 ± 0.58 | self-assembled into hydrogels | 
IVK [IK3] | 3.31 ± 0.57 | self-assembled into hydrogels | 
KLVFFAE (listed as Homo sapiens) [KE7] | 3.18 ± 0.67 | self-assembled into hydrogels | 
LIVAGD (Ac-LIVAGD) [LD6, designed synthetic hexamer, negatively charged, acetylated at the N terminus] | 3.06 ± 0.65 | self-assembled into hydrogels | 
NFGAIL (listed as Homo sapiens) [NL6] | 0.76 ± 0.21 | self-assembled into hydrogels | 
PPG |  |  | First hyperpolarizability β [8]: about 0.087 ×10-30 esu
Type I: human collagen subtype I, control and endogenous SHG probe | 1.23 ± 0.36 |  | First hyperpolarizability β [8]: 1250±20 ×10-30 esu
Type II: human collagen subtype II | 0.41 ± 0.13 |  | 

— patent publication US10105454B2, “Ultrashort peptides as exogenous second harmonic probes for bioimaging applications” (Agency for Science, Technology and Research, priority 2014, dated 2018)
